Like-named read-outs stand apart in the source and are kept apart here.
Columns and labels:
[1] = molecular target: T1, FL-Nsp1 (non-structural protein 1) (SARS-CoV-2, UniProt P0DTD1 1-180); experiment: NMR
[2] = molecular target: T1, FL-Nsp1 (non-structural protein 1); experiment: NMR; remark: listed apart in the source

Q: Does GGGUUUAUACCUUCCCAGGUAACAAACCC (structured_RNA) [SL1] bind [1]?
A: no binding

B1: SL1-4 (structured_RNA)
RNA: GGUUUAUACCUUCCCAGGUAACAAACCAACCAACUUUCGAUCUCUUGUAGAUCUGUUCUCUAAACGAACUUUAAAAUCUGUGUGGCUGUCACUCGGCUGCAUGCUUAGUGCACUCACGC
Q: Does B1 bind [2]?
A: no binding
